Paper PMC5012860, “Hemi-methylated DNA regulates DNA methylation inheritance through allosteric activation of H3 ubiquitylation by UHRF1” (eLife, 2016)
Residue numbers refer to the chain shown, from its start.

How the values were obtained:
[1] = target: T1, MBP-SRA-RING DNA^mut (G448D) (human, UniProt Q96T88 405-793, G448D); assay: pull-down; as a2 with SRA-RING DNA^mut in the presence of 5 uM DNA; settings: both partners purified
T1 construct: human UHRF1 SRA-RING, amino acids 405-793, with G448D (DNA^mut); source: E. coli, purified as described for UHRF1
T1 sequence (looked up): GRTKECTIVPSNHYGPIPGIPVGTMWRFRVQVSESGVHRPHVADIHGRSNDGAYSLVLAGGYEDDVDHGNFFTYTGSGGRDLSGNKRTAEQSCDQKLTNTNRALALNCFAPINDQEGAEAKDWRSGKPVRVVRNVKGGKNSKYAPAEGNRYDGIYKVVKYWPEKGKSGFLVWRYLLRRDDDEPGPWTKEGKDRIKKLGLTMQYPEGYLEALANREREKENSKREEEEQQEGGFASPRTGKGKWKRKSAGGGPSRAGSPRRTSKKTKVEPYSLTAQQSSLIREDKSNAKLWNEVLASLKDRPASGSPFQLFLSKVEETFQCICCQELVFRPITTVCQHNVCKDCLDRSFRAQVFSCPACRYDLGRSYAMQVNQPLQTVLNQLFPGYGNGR

[2] = target: T2, His-MBP-tagged UHRF1 SRA-RING (amino acids 405-793) (human, UniProt Q96T88 405-793); assay: pull-down; proteins each at 1 uM incubated overnight at 4 C with MBP magnetic beads in 50 mM Tris-HCl pH 8.0, 100 mM NaCl, 0.1% NP-40, 0.5% BSA; blot with GST antibody; also done with 25 uM H3_(1-20)K9me2 peptide, which did not inhibit; settings: both partners purified
T2 construct: human UHRF1 SRA-RING, amino acids 405-793; also called MBP-SRA-RING; source: E. coli, purified as described for UHRF1
T2 sequence (looked up): T1 sequence (looked up) with D44G

B1: GST-tagged UHRF1 TTD-PHD (amino acids 123-366) (domain or fragment, human, UniProt Q96T88 123-366, looked up)
chain: DEDMWDETELGLYKVNEYVDARDTNMGAWFEAQVVRVTRKAPSRDEPCSSTSRPALEEDVIYHVKYDDYPENGVVQMNSRDVRARARTIIKWQDLEVGQVVMLNYNPDNPKERGFWYDAEISRKRETRTARELYANVVLGDDSLNDCRIIFVDEVFKIERPGEGSPMVDNPMRRKSGPSCKHCKDDVNRLCRVCACHLCGGRQDPDKQLMCDECDMAFHIYCLDPPLSSVPSEDEWYCPECRND
notes: human UHRF1 linked tandem Tudor domain and plant homeodomain (TTD-PHD), amino acids 123-366; also called GST-TTD-PHD; source: produced as previously described (Rothbart et al., 2013)
B1: binds [1]; binds [2].
